We go through three molecules from paper PMC3131385, “TBP Binding-Induced Folding of the Glucocorticoid Receptor AF1 Domain Facilitates Its Interaction with Steroid Receptor Coactivator-1” (PLoS ONE, 2011).

B1: TBPC, 181 C-terminal residues of human TATA box binding protein (TBP) (domain or fragment, UniProt P20226 159-339, looked up)
chain: SGIVPQLQNIVSTVNLGCKLDLKTIALRARNAEYNPKRFAAVIMRIREPRTTALIFSSGKMVCTGAKSEEQSRLAARKYARVVQKLGFPAKFLDFKIQNMVGSCDVKFPIRLEGLVLTHQQFSSYEPELFPGLIYRMIKPRIVLLIFVSGKVVLTGAKVRAEIYEAFENIYPILKGFRKTT
notes: source: E. coli BL21(DE3), purified (NTA column, imidazole step-gradient)
B2: glucocorticoid receptor (GR) N-terminal activation function domain AF1 (domain or fragment, human, UniProt P04150 77-262, looked up)
chain: DLSKAVSLSMGLYMGETETKVMGNDLGFPQQGQISLSSGETDLKLLEESIANLNRSTSVPENPKSSASTAVSAAPTEKEFPKTHSDVSSEQQHLKGQTGTNGGNVKLYTTDQSTFDILQDLEFSSGSPGKETNESPWRSDLLIDENCLLSPLAGEDDSFLLEGNSNEDCKPLILPDTKPKIKDNGD
notes: human glucocorticoid receptor, AF1 domain, amino acid residues 77-262; made from human GR cDNA digested with BglII; also called GR AF1

Assay [1] addresses B2. The assay is described as follows: SPR; TBPc immobilised on C1 chip (Fc2, 200-250 RU, through ionic interaction), AF1 as analyte 0.2-6.4 µM, multi-cycle kinetics, room temperature, 0.01 M HEPES pH 7.4, 0.15 M NaCl, 50 µM EDTA, 0.05% Tween-20; 1:1 Langmuir model, KD = kd/ka. The settings on record: both partners purified.
Assay [2] deals with B2. Put plainly: circular dichroism titration; far-UV CD at 22°C, AF1 fixed at 4.5 µM, TBPC varied (AF1:TBPC 1:0.25 to 1:2); ellipticity at 220 nm, experimental against theoretical sum. The settings on record: both partners purified.
Assay [3] addresses T1, TBPC, 181 C-terminal residues of human TATA box binding protein (TBP) (human, UniProt P20226 159-339).
T1 chain: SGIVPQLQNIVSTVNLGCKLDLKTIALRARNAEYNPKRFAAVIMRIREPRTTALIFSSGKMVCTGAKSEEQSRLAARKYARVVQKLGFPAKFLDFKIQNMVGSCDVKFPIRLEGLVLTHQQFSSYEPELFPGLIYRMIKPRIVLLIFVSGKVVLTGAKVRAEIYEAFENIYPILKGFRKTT
Put plainly: SPR.

Assay [4] addresses B1. Put plainly: SPR; TBPc immobilised on C1 chip (Fc2, 200-250 RU, through ionic interaction), AF1 as analyte 0.2-6.4 µM, multi-cycle kinetics, room temperature, 0.01 M HEPES pH 7.4, 0.15 M NaCl, 50 µM EDTA, 0.05% Tween-20; 1:1 Langmuir model, KD = kd/ka. The following applies: both partners purified.
The target in assay [5] is T2, steroid receptor coactivator-1 (SRC-1) (human (endogenous in HeLa), UniProt Q15788 1-1441).
T2 construct: source: endogenous, HeLa nuclear extract
The assay is described as follows: co-IP; SRC-1 antibody on protein A/G-agarose beads; HeLa nuclear extract (0.5 mg total protein) mixed with 10 µg purified AF1 and/or TBPC, 4°C; blot with GR AF1 antibody. The settings on record: one partner purified.

T2 sequence (Q15788 whole entry): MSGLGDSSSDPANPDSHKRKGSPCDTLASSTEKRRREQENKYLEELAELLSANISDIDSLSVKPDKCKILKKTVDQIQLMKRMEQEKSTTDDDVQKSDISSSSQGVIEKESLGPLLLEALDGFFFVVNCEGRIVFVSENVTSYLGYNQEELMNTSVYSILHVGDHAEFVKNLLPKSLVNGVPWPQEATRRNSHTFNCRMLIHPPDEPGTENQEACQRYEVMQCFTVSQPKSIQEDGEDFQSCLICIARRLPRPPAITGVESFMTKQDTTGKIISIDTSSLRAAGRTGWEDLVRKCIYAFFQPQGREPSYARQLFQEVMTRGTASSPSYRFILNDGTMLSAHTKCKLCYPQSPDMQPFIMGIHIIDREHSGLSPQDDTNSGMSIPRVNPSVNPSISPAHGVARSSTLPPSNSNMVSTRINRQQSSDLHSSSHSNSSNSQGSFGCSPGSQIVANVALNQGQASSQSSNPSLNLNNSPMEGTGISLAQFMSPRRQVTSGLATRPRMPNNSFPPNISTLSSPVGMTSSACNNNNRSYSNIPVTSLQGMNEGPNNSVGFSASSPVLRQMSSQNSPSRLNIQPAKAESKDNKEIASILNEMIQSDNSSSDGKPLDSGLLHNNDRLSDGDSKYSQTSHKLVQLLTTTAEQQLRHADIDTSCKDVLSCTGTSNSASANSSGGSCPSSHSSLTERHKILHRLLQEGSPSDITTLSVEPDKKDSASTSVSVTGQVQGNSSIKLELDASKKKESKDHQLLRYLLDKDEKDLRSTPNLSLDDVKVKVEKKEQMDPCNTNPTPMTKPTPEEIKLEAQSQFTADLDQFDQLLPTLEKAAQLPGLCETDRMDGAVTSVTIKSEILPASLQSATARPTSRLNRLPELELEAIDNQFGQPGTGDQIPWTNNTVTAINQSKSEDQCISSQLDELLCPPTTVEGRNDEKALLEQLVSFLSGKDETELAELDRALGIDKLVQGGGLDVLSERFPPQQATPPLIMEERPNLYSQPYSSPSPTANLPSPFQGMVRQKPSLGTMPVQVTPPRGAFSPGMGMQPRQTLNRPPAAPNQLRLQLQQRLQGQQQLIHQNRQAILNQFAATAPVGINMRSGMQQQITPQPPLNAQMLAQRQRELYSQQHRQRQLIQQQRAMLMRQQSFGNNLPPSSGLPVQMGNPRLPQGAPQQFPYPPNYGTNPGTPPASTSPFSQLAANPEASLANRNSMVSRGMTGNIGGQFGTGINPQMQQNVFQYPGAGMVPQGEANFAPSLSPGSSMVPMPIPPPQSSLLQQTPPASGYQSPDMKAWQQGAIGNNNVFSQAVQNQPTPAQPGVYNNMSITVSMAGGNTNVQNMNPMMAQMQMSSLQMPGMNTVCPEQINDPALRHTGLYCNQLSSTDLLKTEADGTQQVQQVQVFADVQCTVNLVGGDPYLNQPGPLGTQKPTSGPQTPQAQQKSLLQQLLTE

The molecule B1 registered a dissociation constant Kd in assay [1] of 0.46 µM. Besides, the “stoichiometry N” value in assay [2] was approximately 1.

In turn, B2 returned a koff in assay [3] of 0.00143 s⁻¹. In addition, in assay [4], the “stoichiometry N” value amounted to 1.

B3: GR AF1:TBPC complex (complex, human)
chain 1: DLSKAVSLSMGLYMGETETKVMGNDLGFPQQGQISLSSGETDLKLLEESIANLNRSTSVPENPKSSASTAVSAAPTEKEFPKTHSDVSSEQQHLKGQTGTNGGNVKLYTTDQSTFDILQDLEFSSGSPGKETNESPWRSDLLIDENCLLSPLAGEDDSFLLEGNSNEDCKPLILPDTKPKIKDNGD
chain 2: SGIVPQLQNIVSTVNLGCKLDLKTIALRARNAEYNPKRFAAVIMRIREPRTTALIFSSGKMVCTGAKSEEQSRLAARKYARVVQKLGFPAKFLDFKIQNMVGSCDVKFPIRLEGLVLTHQQFSSYEPELFPGLIYRMIKPRIVLLIFVSGKVVLTGAKVRAEIYEAFENIYPILKGFRKTT
notes: human glucocorticoid receptor, AF1 domain, amino acid residues 77-262; as m1; as m2; AF1, TBPC and the nuclear extract were mixed at once; only AF1 was detected on the blot; also called AF1 complexed with TBPC; source: purified AF1 and purified TBPC (10 µg) mixed together with HeLa nuclear extract
Turning to B3, the “fold increase against AF1 alone” value in assay [5] was approximately 8 fold.
